Data as given in patent US20240010721A1 (HARBOUR BIOMED SHANGHAI, published 2024).

Experiments:
[1] = target: T1, human ROR1 (hROR1) on cells (human, UniProt Q01973 30-937); assay: FACS, A549 cells
T1 construct: whole, on cells; the cell line is named under assay; also called HEK293T-hROR1; 293T-hROR1
Protocol: (§1) The binding properties were characterized by FACS. The recombinant antibodies obtained above were serially diluted to 9 different concentrations and incubated for 1 h, and then determined for the binding ability with HEK293T-hROR1, CHO-K1-cynoROR1 and A549 cell lines (endogenously expressing ROR1), respectively. The secondary antibody was then incubated for 1 h. The results are shown in FIG. 4-6 and Table 7-2 below.

[2] = target: T1, human ROR1 (hROR1) on cells; assay: FACS, HEK293T-hROR1 cells
Protocol: as §1

[3] = target: T2, cynomolgus ROR1 (cynoROR1) on CHO-K1 cells (cynomolgus, UniProt A0A2K5WTX7 30-937); assay: FACS, CHO-K1-cynoROR1 cells
T2 construct: whole, on cells; also called CHO-K1-cynoROR1; CHO-K1-cyROR1
Protocol: as §1

[4] = target: T3, hROR2ECD-his (human, UniProt Q01974 34-403); assay: ELISA, plate coated with hROR2 ECD-his
T3 construct: extracellular domain; bought, Acrobiosystems R02-H52E5; also called huROR2-his
T3 sequence (Q01974 34-403): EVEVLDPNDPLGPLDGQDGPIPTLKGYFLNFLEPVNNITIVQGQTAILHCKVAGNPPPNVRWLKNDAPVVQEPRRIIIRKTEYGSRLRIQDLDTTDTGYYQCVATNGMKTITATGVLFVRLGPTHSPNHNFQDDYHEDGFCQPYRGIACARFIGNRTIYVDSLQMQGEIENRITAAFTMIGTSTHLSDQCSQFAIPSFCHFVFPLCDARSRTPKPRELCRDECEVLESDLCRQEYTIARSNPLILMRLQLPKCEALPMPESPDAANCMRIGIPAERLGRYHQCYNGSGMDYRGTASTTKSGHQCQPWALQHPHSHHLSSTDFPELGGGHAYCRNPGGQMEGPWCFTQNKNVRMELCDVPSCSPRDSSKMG
Protocol: (§2) Screening by ELISA assay: 96-well plates (Corning 9018) were coated with 1 μg/mL hROR1 ECD-his/hROR2 ECD-his/mROR1 ECD-his proteins prepared with PBS in Example 1a above and incubated at 4° C. overnight. The liquid was then discarded, and the plates were washed 3 times with PBST, blocked with 5% milk for 2 h at room temperature, and washed 3 times with PBST. The taken supernatant was added at 100 μL/well, and the plates were incubated at room temperature for 1 h, followed by washing 3 times with PBST. 100 μL/well of secondary antibody (Sigma, Cat#: A8592) was added, the plates were incubated at room temperature for 1 h, and then washed. TMB was then added to the plates at 100 μL/well and incubated for 15 min at room temperature. Thereafter, the reaction was terminated and data were read.
(§3) a. Results of ELISA assay (the ELISA assay was performed according to the same procedures as in Example 2c, except that the added samples were recombinant antibodies and the secondary antibody was a-Fc (Genscript, Cat#: A01854))
The corresponding values in the table are the measured median fluorescence intensity (MFI).

[5] = target: T4, Human ROR1-ECD-his (human, UniProt Q01973 30-406); assay: ELISA, plate coated with hROR1 ECD-his
T4 construct: extracellular domain; bought, Acrobiosystems RO1-H522y; also called hROR1-ECD-his; hROR1 ECD-his
T4 sequence (Q01973 30-406): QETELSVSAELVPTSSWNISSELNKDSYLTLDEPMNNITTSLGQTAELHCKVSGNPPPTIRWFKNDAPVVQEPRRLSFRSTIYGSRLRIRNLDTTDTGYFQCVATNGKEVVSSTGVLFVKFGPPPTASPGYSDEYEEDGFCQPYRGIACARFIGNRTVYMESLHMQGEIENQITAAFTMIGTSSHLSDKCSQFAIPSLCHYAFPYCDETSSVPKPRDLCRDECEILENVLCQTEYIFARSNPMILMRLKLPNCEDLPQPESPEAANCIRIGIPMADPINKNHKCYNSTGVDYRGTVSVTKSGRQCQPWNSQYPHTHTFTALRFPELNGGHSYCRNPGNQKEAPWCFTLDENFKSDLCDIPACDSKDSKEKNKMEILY
Protocol: as §2, §3

[6] = target: T3, hROR2ECD-his; assay: ELISA, plate coated with hROR2 ECD-his; remark: listed apart in the source
Protocol: as §2, §3

[7] = target: T5, ROR1 (antigen of the KD determination and of the Octet dissociation measurement) (UniProt Q01973 30-403, limits assumed); assay: method not stated (conventional procedures)
T5 sequence (Q01973 30-403 limits assumed): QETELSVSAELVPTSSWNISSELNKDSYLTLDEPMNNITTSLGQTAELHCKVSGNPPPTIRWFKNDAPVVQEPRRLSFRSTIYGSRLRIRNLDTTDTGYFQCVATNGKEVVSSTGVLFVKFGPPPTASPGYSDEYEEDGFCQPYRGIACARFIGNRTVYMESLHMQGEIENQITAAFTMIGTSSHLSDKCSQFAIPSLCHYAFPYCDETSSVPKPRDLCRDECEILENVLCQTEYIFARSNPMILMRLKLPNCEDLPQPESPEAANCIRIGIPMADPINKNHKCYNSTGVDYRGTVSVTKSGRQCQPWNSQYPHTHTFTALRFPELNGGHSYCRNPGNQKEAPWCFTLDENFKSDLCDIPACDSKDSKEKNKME

[8] = target: T1, human ROR1 (hROR1) on cells; assay: FACS, HEK293T-hROR1 cells; cytometer saturated
Protocol: as §1

[9] = target: T1, human ROR1 (hROR1) on cells; assay: FACS, Panc-1 cells
[10] = target: T1, human ROR1 (hROR1) on cells; assay: FACS, HEK293T-hROR1 cells; remark: listed apart in the source
[11] = target: T5, ROR1 (antigen of the KD determination …); assay: Octet, antigen form not stated

T1 sequence (Q01973 30-937): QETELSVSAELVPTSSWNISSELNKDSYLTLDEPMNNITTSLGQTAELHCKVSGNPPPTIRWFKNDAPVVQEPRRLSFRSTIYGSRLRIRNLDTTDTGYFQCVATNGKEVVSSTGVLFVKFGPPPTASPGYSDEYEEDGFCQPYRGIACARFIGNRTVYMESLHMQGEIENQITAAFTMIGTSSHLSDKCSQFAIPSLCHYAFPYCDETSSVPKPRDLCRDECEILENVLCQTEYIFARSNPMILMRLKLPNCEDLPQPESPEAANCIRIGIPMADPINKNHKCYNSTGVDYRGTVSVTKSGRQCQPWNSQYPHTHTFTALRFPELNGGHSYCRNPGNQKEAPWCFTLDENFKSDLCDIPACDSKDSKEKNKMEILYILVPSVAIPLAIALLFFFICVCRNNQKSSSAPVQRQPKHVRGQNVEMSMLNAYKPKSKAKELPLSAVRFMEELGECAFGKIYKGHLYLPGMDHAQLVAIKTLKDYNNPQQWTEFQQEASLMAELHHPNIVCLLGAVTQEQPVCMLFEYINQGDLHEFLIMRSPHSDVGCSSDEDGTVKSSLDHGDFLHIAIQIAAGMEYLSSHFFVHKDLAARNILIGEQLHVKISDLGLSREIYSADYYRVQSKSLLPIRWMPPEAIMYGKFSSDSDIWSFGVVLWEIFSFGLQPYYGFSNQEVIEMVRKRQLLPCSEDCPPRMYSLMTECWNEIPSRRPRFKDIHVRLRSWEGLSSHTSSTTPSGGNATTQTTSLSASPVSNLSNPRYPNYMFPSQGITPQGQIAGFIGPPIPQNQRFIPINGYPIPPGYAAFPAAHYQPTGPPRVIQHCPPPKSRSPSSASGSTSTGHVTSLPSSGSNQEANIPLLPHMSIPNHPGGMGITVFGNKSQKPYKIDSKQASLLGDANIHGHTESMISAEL

MAX(MFI) [1] [MFI] | fold lower EC50 than reference PR000374 [2] [fold] | MAX(MFI) [3] [MFI] | binding result [4] | ELISA signal (called MFI) [5] | ELISA signal (called MFI) [6] | Kd [7] [nM] | koff [7] [s⁻¹] | kon [7] [M⁻¹ s⁻¹] | MAX(MFI) [8] [MFI] | MFI [9] [MFI] | MFI [10] [MFI] | Response [11] | koff [11] [s⁻¹] | Binder
4050 | 10 | 25000 | no binding | 2.44 | 0.0315 | 0.804 | 0.000248 | 309000 | 262000 | – | – | – | – | PR001360 (antibody, human IgG1, kappa, V domains shown, fully human IgG1, kappa) VH: QVQLVESGGGVVQPGRSLRLSCAASGFTFSSYGMHWVRQAPGKGLEWVAVIWYDGSDKDSVDSVKGRFTISRDDSKNTLYLQMNSLRAEDTAVYYCAREQARSFDLWGRGTLVTVSS VL: DIQMTQSPSTLSASVGDRVTITCRASQTINNWLAWYQQKPGKAPKLLIYKASSLESGVPSRFSGSGSGTEFTLTISSLQPDDFATYYCQQYNIYSPMYTFGQGTKVEIKR
– | – | – | – | – | – | – | – | – | – | 1990 | 32300 | 0.798 | 0.000193 | PR002582 (antibody, human IgG1, kappa, V domains shown, PR001369 variant: VH D54E; hIgG1; also called anti-ROR1 1015M3-H10(H: D54E) hIgG1) VH: QVQLVESGGGVVQPGRSLRLSCAASGFTFSNYGIHWVRQAPGKGLEWVAIMWYEGSNTDYADSVKGRFTISRDTSKNTLFLQMNSLRAEDTAVYYCAREQARSFDLWGRGTLVTVSS VL: DIVMTQSPSTLSASVGDRVTITCRASQTINNWLAWYQQKPGKAPKLLIYKASSLESGVPSRFSGSGSGTEFTLTISSLQPDDFATYYCQQYNSYSPMYTFGQGTKVEIKR
– | – | – | – | – | – | – | – | – | – | 2610 | 32700 | 0.771 | 0.000389 | PR002585 (antibody, human IgG1, kappa, V domains shown, PR001369 variant: VH G55A; hIgG1; also called anti-ROR1 1015M3-H10(H: G55A) hIgG1) VH: QVQLVESGGGVVQPGRSLRLSCAASGFTFSNYGIHWVRQAPGKGLEWVAIMWYDASNTDYADSVKGRFTISRDTSKNTLFLQMNSLRAEDTAVYYCAREQARSFDLWGRGTLVTVSS VL: DIVMTQSPSTLSASVGDRVTITCRASQTINNWLAWYQQKPGKAPKLLIYKASSLESGVPSRFSGSGSGTEFTLTISSLQPDDFATYYCQQYNSYSPMYTFGQGTKVEIKR
3700 | 10 | 17200 | no binding | 2.45 | 0.0305 | 2.9 | 0.00101 | 348000 | 262000 | – | – | – | – | PR001363 (antibody, human IgG1, kappa, V domains shown, fully human IgG1, kappa) VH: QVQLVESGGGVVQPGRSLRLSCAASGFSFSSYAMHWVRQAPGRGLEWVAVIWYDGGDEDSIDSVKGRFTISRDDSKNTLYLQMNSLRAEDTAVYYCAREQARSFDLWGRGTLVTVSS VL: DVVMTQSPSTLSASVGDRVTITCRASQTINNWLAWYQQKPGKAPKLLIYKASSLESGVPSRFSGSGSGTEFTLTISSLQPDDFATYYCQQYNSYSPMYTFGQGTKVEIKR
– | – | – | – | – | – | – | – | – | – | 3180 | 36600 | 0.69 | 0.000301 | PR002584 (antibody, human IgG1, kappa, V domains shown, PR001369 variant: VH D54E, VL S93A; hIgG1; also called anti-ROR1 1015M3-H10(H: D54E; L: S93A) hIgG1) VH: QVQLVESGGGVVQPGRSLRLSCAASGFTFSNYGIHWVRQAPGKGLEWVAIMWYEGSNTDYADSVKGRFTISRDTSKNTLFLQMNSLRAEDTAVYYCAREQARSFDLWGRGTLVTVSS VL: DIVMTQSPSTLSASVGDRVTITCRASQTINNWLAWYQQKPGKAPKLLIYKASSLESGVPSRFSGSGSGTEFTLTISSLQPDDFATYYCQQYNAYSPMYTFGQGTKVEIKR
– | – | – | – | – | – | – | – | – | – | 3950 | 25300 | 0.672 | 0.000223 | PR002583 (antibody, human IgG1, kappa, V domains shown, PR001369 variant: VH D54E, VL N92Q; hIgG1; also called anti-ROR1 1015M3-H10(H: D54E; L: N92Q) hIgG1) VH: QVQLVESGGGVVQPGRSLRLSCAASGFTFSNYGIHWVRQAPGKGLEWVAIMWYEGSNTDYADSVKGRFTISRDTSKNTLFLQMNSLRAEDTAVYYCAREQARSFDLWGRGTLVTVSS VL: DIVMTQSPSTLSASVGDRVTITCRASQTINNWLAWYQQKPGKAPKLLIYKASSLESGVPSRFSGSGSGTEFTLTISSLQPDDFATYYCQQYQSYSPMYTFGQGTKVEIKR
– | – | – | – | – | – | – | – | – | – | 5490 | 41900 | 0.754 | 0.000266 | PR002586 (antibody, human IgG1, kappa, V domains shown, PR001369 variant: VH G55A, VL N92Q; hIgG1; also called anti-ROR1 1015M3-H10(H: G55A; L: N92Q) hIgG1) VH: QVQLVESGGGVVQPGRSLRLSCAASGFTFSNYGIHWVRQAPGKGLEWVAIMWYDASNTDYADSVKGRFTISRDTSKNTLFLQMNSLRAEDTAVYYCAREQARSFDLWGRGTLVTVSS VL: DIVMTQSPSTLSASVGDRVTITCRASQTINNWLAWYQQKPGKAPKLLIYKASSLESGVPSRFSGSGSGTEFTLTISSLQPDDFATYYCQQYQSYSPMYTFGQGTKVEIKR
4400 | 10 | 22100 | no binding | 2.35 | 0.0285 | 0.237 | 7.72e-05 | 325000 | 262000 | – | – | – | – | PR001365 (antibody, human IgG1, kappa, V domains shown, fully human IgG1, kappa) VH: QVQLVQSGGGVVQPGRSLRLSCAASGFTFSSYGMHWVRQAPGKGLEWVAVIWYDGSDKDYADSVKGRFTISRDTSKNTLYLQMNSLRAEDTAVYYCAREQARSFDLWGRGTLVTVSS VL: DIQMTQSPYSLSASVGDRVTITCRASQTINNWLAWYQQKPGKAPKLLIYKASSLESGVPSRFSGSGSGTEFTLTISSLQPDDFATYYCQQYKLYSPMYTFGQGTKVEIKR
– | – | – | – | – | – | – | – | – | – | 3180 | 42300 | 0.974 | 6.73e-05 | PR002581 (antibody, human IgG1, kappa, V domains shown, PR001369 variant: VL S93A; hIgG1; also called anti-ROR1 1015M3-H10(L: S93A) hIgG1) VH: QVQLVESGGGVVQPGRSLRLSCAASGFTFSNYGIHWVRQAPGKGLEWVAIMWYDGSNTDYADSVKGRFTISRDTSKNTLFLQMNSLRAEDTAVYYCAREQARSFDLWGRGTLVTVSS VL: DIVMTQSPSTLSASVGDRVTITCRASQTINNWLAWYQQKPGKAPKLLIYKASSLESGVPSRFSGSGSGTEFTLTISSLQPDDFATYYCQQYNAYSPMYTFGQGTKVEIKR
– | – | – | – | – | – | – | – | – | – | 3720 | 42500 | 0.985 | 4.75e-05 | PR002580 (antibody, human IgG1, kappa, V domains shown, PR001369 variant: VL N92Q; hIgG1; also called anti-ROR1 1015M3-H10(L: N92Q) hIgG1) VH: QVQLVESGGGVVQPGRSLRLSCAASGFTFSNYGIHWVRQAPGKGLEWVAIMWYDGSNTDYADSVKGRFTISRDTSKNTLFLQMNSLRAEDTAVYYCAREQARSFDLWGRGTLVTVSS VL: DIVMTQSPSTLSASVGDRVTITCRASQTINNWLAWYQQKPGKAPKLLIYKASSLESGVPSRFSGSGSGTEFTLTISSLQPDDFATYYCQQYQSYSPMYTFGQGTKVEIKR
– | – | – | – | – | – | – | – | – | – | 2950 | 41500 | 0.756 | 0.000394 | PR002587 (antibody, human IgG1, kappa, V domains shown, PR001369 variant: VH G55A, VL S93A; hIgG1; also called anti-ROR1 1015M3-H10(H: G55A; L: S93A) hIgG1) VH: QVQLVESGGGVVQPGRSLRLSCAASGFTFSNYGIHWVRQAPGKGLEWVAIMWYDASNTDYADSVKGRFTISRDTSKNTLFLQMNSLRAEDTAVYYCAREQARSFDLWGRGTLVTVSS VL: DIVMTQSPSTLSASVGDRVTITCRASQTINNWLAWYQQKPGKAPKLLIYKASSLESGVPSRFSGSGSGTEFTLTISSLQPDDFATYYCQQYNAYSPMYTFGQGTKVEIKR
3450 | 10 | 21200 | no binding | 2.38 | 0.0235 | 3.06 | 0.00104 | 341000 | 262000 | – | – | – | – | PR001367 (antibody, human IgG1, kappa, V domains shown, fully human IgG1, kappa) VH: QVQLVESGGGVVQPGRSLRLSCAASGFSFSSYAMHWVRQAPGRGLEWVAVIWYDGGDEDYIDSVKGRFTISRDDSKNTLYLQMNSLRAEDTAVYYCAREQARSFDLWGRGTLVTVSS VL: DVVMTQSPSTLSASVGDRVTITCRASQTINNWLAWYQQKPGKAPKLLIYKASSLESGVPSRFSGSGSGTEFTLTISSLQPDDFATYYCQQYNSYSPMYTFGQGTKVEIKR
